Binding result, Kd and KD data for 17 molecules are collected here from patent US20210380678A1 (SURROZEN OPERATING, published 2021).

As a reminder, the Kd is the equilibrium constant for the complex coming apart. Lower therefore signals tighter binding. One may read the KD as the concentration at which binding is half-saturated.

In assay [1] the target is T1, human ASGR1 extracellular domain (hASGR1 ECD) (human, UniProt P07306 62-291, biotinylated (His-Avi tag)).
T1 construct: His-Avi tag at the N-terminus, biotinylated for BLI; also called human ASGR1 ECD
T1 sequence: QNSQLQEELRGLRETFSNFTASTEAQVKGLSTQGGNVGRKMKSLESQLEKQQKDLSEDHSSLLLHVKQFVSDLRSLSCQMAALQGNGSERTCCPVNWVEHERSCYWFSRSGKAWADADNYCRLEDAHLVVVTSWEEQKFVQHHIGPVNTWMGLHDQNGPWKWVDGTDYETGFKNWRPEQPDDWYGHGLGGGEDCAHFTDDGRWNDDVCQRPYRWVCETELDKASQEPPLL
Nature of the assay: hybridoma screening on recombinant ECD.

The target of assay [2] is T2, cynomolgus ASGR1 extracellular domain (cynoASGR1 ECD) (cynomolgus, UniProt P07306 62-291 (human entry)).
T2 construct: Cloned with a His/Avi tag
T2 chain: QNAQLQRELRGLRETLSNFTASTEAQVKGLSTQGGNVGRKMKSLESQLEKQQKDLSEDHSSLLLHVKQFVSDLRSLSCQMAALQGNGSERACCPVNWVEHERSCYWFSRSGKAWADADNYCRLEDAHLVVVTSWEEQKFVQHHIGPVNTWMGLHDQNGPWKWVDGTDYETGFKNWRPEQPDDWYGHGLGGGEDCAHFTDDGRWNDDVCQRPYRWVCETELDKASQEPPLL
Nature of the assay: hybridoma screening on recombinant ECD.

For assay [3], the target named is T3, human ZNRF3 extracellular domain (hZNRF3 ECD) (human, UniProt Q9ULT6 56-219, biotinylated (His-Avi tag)).
T3 construct: Expressed with a His-Avi tag at the N-terminus and biotinylated; also called ZRNF3
T3 sequence: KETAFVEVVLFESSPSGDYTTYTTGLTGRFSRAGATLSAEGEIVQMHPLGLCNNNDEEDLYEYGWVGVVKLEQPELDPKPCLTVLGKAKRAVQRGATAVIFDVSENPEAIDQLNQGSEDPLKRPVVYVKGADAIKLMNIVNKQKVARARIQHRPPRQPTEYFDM
In words: BLI (Octet), biotinylated antigen on SA sensor, 1:1 fit. How it is done: (§1) Binding characterization of recombinant Fabs or IgG' s was carried out using Bio-Layer Interferometry (BLI) using the Octet Red 96 platform (PALL ForteBio, Fremont, Calif.) with streptavidin (SA) coated biosensors (PALL ForteBio,). […] Following immobilization, sensors were dipped into samples containing test molecules at seven concentrations. Values for KD were determined by fitting the resulting data with a 1:1 binding model.
(BLI is a label-free optical method that tracks binding on a fibre tip over time.)

The target in assay [4] is T3, human ZNRF3 extracellular domain …. Nature of the assay: BLI (Octet) KD grade: *** = 100 nM > KD. How it is done:
as §1

Assay [5] concerns the target T4, human RNF43 extracellular domain (hRNF43 ECD) (human, UniProt Q68DV7 44-197, biotinylated (His-Avi tag)).
T4 construct: Expressed with a His-Avi tag at the N-terminus and biotinylated; also called human RNF3 (Q44-D198)
T4 sequence: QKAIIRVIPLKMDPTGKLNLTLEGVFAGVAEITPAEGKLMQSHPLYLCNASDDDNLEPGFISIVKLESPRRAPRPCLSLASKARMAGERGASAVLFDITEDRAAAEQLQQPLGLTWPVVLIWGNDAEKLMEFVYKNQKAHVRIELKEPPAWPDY
Nature of the assay: ELISA (binding specificity).

In assay [6] the target is T3, human ZNRF3 extracellular domain …. Nature of the assay: BLI (Octet) KD grade: ** = 1 uM > KD >= 100 nM. How it is done: as §1

B1: LP1-1F8 (antibody, V domains shown)
VH: EVKLVESGGGLVKPGGSLKLSCAASGFTFSTYTMSWVRQTPAKRLEWVATISSIGVNTYYPDSVKGRFTISRDNARNTLYLQVSSLRSEDTAMYYCARHVDYYDGISFDYWGQGTTLTVSS
VL: DIVMSQSPSSLAVSAGEKVTMSCKSSQSLFNSRTRKNYLAWYQQKPGQSPKLLIYWASTRESGVPDRFTGSGSGTDFTLTISSVQAEDLAVYYCKQSYYLLTFGAGTKLELK
notes: Hybridoma antibody as screened
For B1, the binding result in assay [1] and in assay [2] was “binds” each time.

B2: 028S-A04 (antibody, V domains shown)
VH: QVQLVQSGAEVKKPGASVKVSCKASGYTFTNYKMHWVRQAPGQGLEWMGKINPSSGSTSYAQKFQGRVTMTRDTSTSTVYMELSSLRSEDTAVYYCARSGAGMWYFDLWGRGTLVTVSS
VL: DIQMTQSPSSLSASVGDRVTITCRASQDIYRYLNWYQQKPGKAPKLLIFAASSLHSGVPSRFSGSGSGTDFTLTISSLQPEDFATYYCQQSYTTPITFGQGTKVEIK
In turn, B2 registered a Kd in assay [3] of 36.2 nM. For the same molecule, the KD in assay [4] was under 100 nM.

B3: 028S-G01 (antibody, V domains shown)
VH: QVQLVQSGAEVKKPGASVKVSCKASGYTFTNYYMHWVRQAPGQGLEWMGWINPHSGGTNYAQKFQGRVTMTRDTSTSTVYMELSSLRSEDTAVYYCAREDYNWNDGWFDPWGQGTLVTVSS
VL: DIQMTQSPSSLSASVGDRVTITCRASENIHKYLNWYQQKPGKAPKLLIYAASSLQSGVPSRFSGSGSGTDFTLTISSLQPEDFATYYCQQGYSTPYTFGQGTKLEIK
For the molecule B3, in assay [5], the binding result is “binds”.

B4: 024S-A02 (antibody, V domains shown)
VH: EVQLVQSGAEVKKPGASVKVSCKASGYTFTSYAMHWVRQAPGQRLEWMGWINAGNGNTKYSQTFQGRVTITRDTSASTAYMELSSLRSEDTAVYYCARDLMVRGGPPFDYWGQGTLVTVSS
VL: not shown
In the case of B4, in assay [5], the binding result is recorded as “binds”.

B5: 020S-E06 (antibody, V domains shown)
VH: QVQLVQSGAEVKKPGASVKVSCKASGYTFTGYYMHWVRQAPGQGLEWMGIINPSGGSTSYAQKFQGRVTMTRDTSTSTVYMELSSLRSEDTAVYYCARGRQGVWDYWGRGTLVTVSS
VL: DIQMTQSPSSLSASVGDRVTITCRSSQSIRTYLNWYQQKPGKAPKLLIYAASTLQSGVPSRFSGSGSGTDFTLTISSLQPEDFATYYCQQANSFPITFGGGTKVEIK
For B5, the binding result in assay [5] is “binds”.

B6: 020S-F06 (antibody, V domains shown)
VH: QVQLVQSGAEVKKPGASVKVSCKASGYTFTSYYLHWVRQAPGQGLEWMGWMNPNSGNTGYAQNFQGRVTMTRDTSTSTVYMELSSLRSEDTAVYYCARGDFWSGYYPYYYYYYGMDVWGQGTTVTVSS
VL: DIQMTQSPSSLSASVGDRVTITCRVSQGISSYLNWYQQKPGKAPKLLIYAASTLQSGVPSRFSGSGSGTDFTLTISSLQPEDFATYYCQQSYGAPLTFGQGTKVEIK
As to B6, in assay [5], the binding result is “binds”.

B7: 028S-D04 (antibody, V domains shown)
VH: QVQLVQSGAEVKKPGASVKVSCKASGGTFSSYAISWVRQAPGQGLEWMGRISPNRGGTKYAQKFQGRVTMTRDTSTSTVYMELSSLRSEDTAVYYCARDSWLRGAWGYWGQGTLVTVSS
VL: DIQMTQSPSSLSASVGDRVTITCRASQSISRWLAWYQQKPGKAPKLLIYAASTLQSGVPSRFSGSGSGTDFTLTISSLQPEDFATYYCQQSFSTPYTFGQGTKVEIK
B7 gave a KD in assay [6] of 100 to 1000 nM. Binding in assay [3] was characterised by a dissociation constant (Kd) of 874 nM.

B8: 028S-B04 (antibody, V domains shown)
VH: QVQLVQSGAEVKKPGASVKVSCKASGYTFRRYPMHWVRQAPGQGLEWMGIINPSGGSTSYAQKFQGRVTMTRDTSTSTVYMELSSLRSEDTAVYYCARDKVGAIDYWGQGTLVTVSS
VL: DIQMTQSPSSLSASVGDRVTITCRASQGISNYLAWYQQKPGKAPKLLIYAASSLQRGVPSRFSGSGSGTDFTLTISSLQPEDFATYYCQQSYSTPLTFGGGTKVEIK
For the molecule B8, the KD in assay [6] lay in the range of 100 to 1000 nM. This molecule also showed a Kd in assay [3] of 256 nM.

B9: 028S-C04 (antibody, V domains shown)
VH: QVQLVQSGAEVKKPGASVKVSCKASGYTFTRYYMHWVRQAPGQGLEWMGIINPSGGSTSYAQKFQGRVTMTRDTSTSTVYMELSSLRSEDTAVYYCARGGSGWLDYWGQGTLVTVSS
VL: DIQMTQSPSSLSASVGDRVTITCRASQSISTWLAWYQQKPGKAPKLLIYAASTLQSGVPSRFSGSGSGTDFTLTISSLQPEDFATYYCQQSYSSPLTFGGGTKVEIK
With B9, the KD in assay [6] is 100 to 1000 nM. In assay [3], this molecule registered a Kd of 164 nM.

B10: 028S-D09 (antibody, V domains shown)
VH: QVQLVQSGAEVKKPGASVKVSCKASGYTFTRHYMHWVRQAPGQGLEWMGIINPSGGSTSYAQKFQGRVTMTRDTSTSTVYMELSSLRSEDTAVYYCARGSLGYFDLWGRGTLVTVSS
VL: not shown
Molecule B10 registered a KD in assay [6] of 100 to 1000 nM. Binding in assay [3] was put at a Kd of 354 nM.

B11: 028S-A11 (antibody, V domains shown)
VH: QVQLVQSGAEVKKPGASVKVSCKASGGTFSGYYMHWVRQAPGQGLEWMGWINPNRGGTSYAQNFQGRVTMTRDTSTSTVYMELSSLRSEDTAVYYCARGMYSSSWLRYWGQGTLVTVSS
VL: DIQMTQSPSSLSASVGDRVTITCRASQGISNYLAWYQQKPGKAPKLLIYAASSLQSGVPSRFSGSGSGTDFTLTISSLQPEDFATYYCQQGSSFPLTFGQGTKVDIK
As for B11, in assay [6], the KD was in the range of 100 to 1000 nM. This molecule also showed a Kd in assay [3] of 203 nM.

B12: 028S-B01 (antibody, V domains shown)
VH: QVQLVQSGAEVKKPGASVKVSCKASGYTFTAYYMHWVRQAPGQGLEWMGIINPNGGRTTYAQKFQGRVTMTRDTSTSTVYMELSSLRSEDTAVYYCARSFGVAGTLDYWGQGTLVTVSS
VL: DIVMTQSPLSLPVTPGEPASISCRSSQSLLHSNGYNYLDWYLQKPGQSPQLLIYDASNLETGVPDRFSGSGSGTDFTLKISRVEAEDVGVYYCMQTLHTPYTFGQGTKLEIK
In the case of B12, the binding result in assay [5] is “binds”.

B13: 028S-B06 (antibody, V domains shown)
VH: QVQLVQSGAEVKKPGASVKVSCKASGYRFTNYYMHWVRQAPGQGLEWMGWISPNSGATNYAQNFQGRVTMTRDTSTSTVYMELSSLRSEDTAVYYCARGGRTTVTTMAYWGQGTLVTVSS
VL: DIVMTQSPLSLPVTPGEPASISCRSSQSLLHSNGYNYLDWYLQKPGQSPQLLIYGASSLQSGVPDRFSGSGSGTDFTLKISRVEAEDVGVYYCMQGTHWPRTFGQGTKVDIK
B13 showed a KD in assay [6] of 100 to 1000 nM. Moreover, the Kd in assay [3] is 764 nM.

B14: 028S-E04 (antibody, V domains shown)
VH: EVQLLESGGGLVQPGGSLRLSCAASGFTFNNFGMSWVRQAPGKGLEWVSGISASGRNTYYADSVKGRFTISRDNSKNTLYLQMNSLRAEDRAVYYCARETRHGSDYWGQGTLVTVSS
VL: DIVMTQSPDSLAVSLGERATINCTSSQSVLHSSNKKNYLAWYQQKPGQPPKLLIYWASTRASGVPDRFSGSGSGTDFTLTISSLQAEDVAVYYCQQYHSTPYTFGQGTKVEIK
In turn, B14 came in with a Kd in assay [3] of 95.3 nM. Moreover, in assay [4], the KD is under 100 nM.

B15: 028S-G06 (antibody, V domains shown)
VH: EVQLLESGGGLVQPGGSLRLSCAASGFAFSNFAMIWVRQAPGKGLEWVSAISGSGGSTYYADSVKGRFTISRDNSKNTLYLQMNSLRAEDTAVYYCARLRANYGMDVWGQGTTVTVSS
VL: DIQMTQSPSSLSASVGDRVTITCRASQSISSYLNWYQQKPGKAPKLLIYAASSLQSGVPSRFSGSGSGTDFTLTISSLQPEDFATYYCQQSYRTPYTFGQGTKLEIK
For B15, the KD in assay [6] is 100 to 1000 nM. In assay [3], this molecule yielded a Kd of 109 nM.

B16: 028S-C03 (antibody, V domains shown)
VH: QVQLVQSGAEVKKPGASVKVSCKASGYTFSRYFMHWVRQAPGQGLEWMGWINPNSGGTRYAQNLQGRVTMTRDTSTSTVYMELSSLRSEDTAVYYCARDQKGKSSSWFRFDPWGQGTLVTVSS
VL: not shown
As to B16, the Kd in assay [3] came out at 25.1 nM. Besides, the KD in assay [4] is under 100 nM.

B17: 028S-G10 (antibody, V domains shown)
VH: QVQLVQSGAEVKKPGASVKVSCKASGYTFTSYGVSWVRQAPGQGLEWMGIINPRGGSTSYAQNFQGRVTMTRDTSTSTVYMELSSLRSEDTAVYYCARYSSSWSWPFDYWGQGTLVTVSS
VL: DIQMTQSPSSLSASVGDRVTITCRASQGISNNLNWYQQKPGKAPKLLIYAASTLQSGVPSRFSGSGSGTDFTLTISSLQPEDFATYYCQQSYSTPTFGQGTKVEIK
B17 returned a KD in assay [6] of 100 to 1000 nM. Besides, in assay [3], the Kd was determined as 684 nM.
